# Data taken from patent publication US7572444B2, “Binding proteins specific for human matriptase” (Amgen Fremont Inc., priority 2004, dated 2009).
# T1: Biotinylated-MTSP1 (Homo sapiens, UniProt Q9Y5Y6)
# T1 sequence (Q9Y5Y6 615-855 limits assumed): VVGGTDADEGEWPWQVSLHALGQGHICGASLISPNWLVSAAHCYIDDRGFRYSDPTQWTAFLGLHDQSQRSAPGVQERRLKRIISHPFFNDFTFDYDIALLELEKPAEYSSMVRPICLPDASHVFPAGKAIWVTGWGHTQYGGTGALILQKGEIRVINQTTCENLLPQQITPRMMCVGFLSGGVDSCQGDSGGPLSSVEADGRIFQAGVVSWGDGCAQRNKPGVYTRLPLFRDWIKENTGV
# B1: HAI-1: the natural inhibitor of MT-SP1 (protein, UniProt O43278 36-529, looked up)
# Kunitz-type protease …: GPPPAPPGLPAGADCLNSFTAGVPGFVLDTNASVSNGATFLESPTVRRGWDCVRACCTTQNCNLALVELQPDRGEDAIAACFLINCLYEQNFVCKFAPREGFINYLTREVYRSYRQLRTQGFGGSGIPKAWAGIDLKVQPQEPLVLKDVENTDWRLLRGDTDVRVERKDPNQVELWGLKEGTYLFQLTVTSSDHPEDTANVTVTVLSTKQTEDYCLASNKVGRCRGSFPRWYYDPTEQICKSFVYGGCLGNKNNYLREEECILACRGVQGGPLRGSSGAQATFPQGPSMERRHPVCSGTCQPTQFRCSNGCCIDSFLECDDTPNCPDASDEAACEKYTSGFDELQRIHFPSDKGHCVDLPDTGLCKESIPRWYYNPFSEHCARFTYGGCYGNKNNFEEEQQCLESCRGISKKDVFGLRREIPIPSTGSVEMAVAVFLVICIVVVVAILGYCFFKNQRKDFHGHHHHPPPTPASSTVSTTEDTEHLVYNHTTRPL
# Target: T1, Biotinylated-MTSP1
# Assay: Competition binding assay on sc95/96 coated plate
# Settings: 125 ng/ml Biotinylated-MTSP1; HAI-1 titrated from 2 μg/ml, sc95/96 from 10 μg/ml
# Excerpt: This experiment was set-up to determine whether or not HAI-1 (the natural inhibitor of MT-SP1) would compete for binding to MT-SP1 with 95/96.
# Bound MTSP was then detected with SA-pod.
molecule,measurement,value
B1,competition for binding of MT-SP1 to sc95/96 coated plate,prevented the binding of MT-SP1 to the plate
